Among the data in ChEMBL document CHEMBL1155272, “Nucleoside-5'-monophosphates as prodrugs of adenosine A2A receptor agonists activated by ecto-5'-nucleotidase” (J Med Chem, 2009) are Km values, retold here.

Substrate in this data set: Nc1ncnc2c1ncn2[C@@H]1O[C@H](COP(=O)(O)O)[C@@H](O)[C@H]1O
Put plainly: Activity at alkaline phosphatase.

B1: Alkaline phosphatase, tissue-nonspecific isozyme (Homo sapiens), P05186 (protein)
chain: MISPFLVLAIGTCLTNSLVPEKEKDPKYWRDQAQETLKYALELQKLNTNVAKNVIMFLGDGMGVSTVTAARILKGQLHHNPGEETRLEMDKFPFVALSKTYNTNAQVPDSAGTATAYLCGVKANEGTVGVSAATERSRCNTTQGNEVTSILRWAKDAGKSVGIVTTTRVNHATPSAAYAHSADRDWYSDNEMPPEALSQGCKDIAYQLMHNIRDIDVIMGGGRKYMYPKNKTDVEYESDEKARGTRLDGLDLVDTWKSFKPRYKHSHFIWNRTELLTLDPHNVDYLLGLFEPGDMQYELNRNNVTDPSLSEMVVVAIQILRKNPKGFFLLVEGGRIDHGHHEGKAKQALHEAVEMDRAIGQAGSLTSSEDTLTVVTADHSHVFTFGGYTPRGNSIFGLAPMLSDTDKKPFTAILYGNGPGYKVVGGERENVSMVDYAHNNYQAQSAVPLRHETHGGEDVAVFSKGPMAHLLHGVHEQNYVPHVMAYAACIGANLGHCAPASSAGSLAAGPLLLALALYPLSVLF
Regarding B1, the Km (as a rule, the substrate concentration at which the rate is half of its maximum) was found to be 441 µM.
